In paper PMC8203652, “Facile fabrication of antibacterial and antiviral perhydrolase-polydopamine composite coatings” (Scientific Reports, 2021):

Substrate: CC(=O)OCC(C)OC(C)=O
Test: purified protein
Assay type: biochemical, Mycolicibacterium smegmatis
Settings: free enzyme; 200 mM H2O2 constant, PGD 3-100 mM, PBS; apparent (two-substrate reaction)

B1: AcT (perhydrolase S54V) (Mycolicibacterium smegmatis MC2 155; S54V) (protein)
chain: MAKRILCFGDSLTWGWVPVEDGAPTERFAPDVRWTGVLAQQLGADFEVIEEGLVARTTNIDDPTDPRLNGASYLPSCLATHLPLDLVIIMLGTNDTKAYFRRTPLDIALGMSVLVTQVLTSAGGVGTTYPAPKVLVVSPPPLAPMPHPWFQLIFEGGEQKTTELARVYSALASFMKVPFFDAGSVISTDGVDGIHFTEANNRDLGVALAEQVRSLL
notes: synthetic gene in pET28a, N-terminal His8 tag and thrombin site (LVPRGS), expressed in E. coli BL21(DE3), Ni-NTA purified; MW 180 kDa printed; S54V printed in the introduction only
B1 gave a Km of 13 mM and a kcat of 4700 s⁻¹.
